The target in one test is T1, human 4-1BB-His protein (human, UniProt Q07011 24-186).
T1 construct: not shown: His tag
Briefly: ELISA, coated human 4-1BB-His, detection with anti-human IgG-HRP, OD450. Background: In an ELISA, binding on a coated surface is turned into a signal by an enzyme label.

The target in test [1] is 4-1BB expressed on cells (HEK293-4-1BB, 4-1BB-Jurkat, GloResponse NFκB-luc2/4-1BB Jurkat) (UniProt Q07011). Nature of the test: Flow cytometry on HEK293-4-1BB cells, PE anti-human IgG, MFI. In general terms: In flow cytometry, cells or beads pass a laser one at a time.
Sequence of 4-1BB expressed on cells (HEK293-4-1BB, 4-1BB-Jurkat, GloResponse NFκB-luc2/4-1BB Jurkat) (UniProt Q07011) (Q07011 24-255 limits assumed): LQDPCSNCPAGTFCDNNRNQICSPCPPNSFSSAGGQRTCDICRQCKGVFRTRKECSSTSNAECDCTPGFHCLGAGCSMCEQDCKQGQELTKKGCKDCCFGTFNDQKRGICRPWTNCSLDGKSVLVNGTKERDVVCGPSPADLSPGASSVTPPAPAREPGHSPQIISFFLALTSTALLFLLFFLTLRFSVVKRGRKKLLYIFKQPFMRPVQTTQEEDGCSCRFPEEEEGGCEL
The target of test [2] is T2, 4-1BB expressed on cells (HEK293-4-1BB, 4-1BB-Jurkat, GloResponse NFκB-luc2/4-1BB Jurkat) (UniProt Q07011 24-255, limits assumed).
T2 construct: whole, on cells; also called HEK293 expressed 4-1BB; HEK293-4-1BB cells
T2 sequence (Q07011 24-255 limits assumed): as above
The description is as above.
Description: To evaluate the antigen binding property, the anti-CLDN18.2-4-1BB antibodies were analyzed for their binding to HEK293 expressed 4-1BB by FACS. A total number of 1×10⁵ HEK293-4-1BB cells in each well were incubated with serial diluted antibodies for 30 minutes at 4° C. in FACS buffer (2% FBS in PBS). After wash by FACS buffer, PE conjugated-anti-human IgG antibody was added to each well and incubated at 4° C. for 30 minutes. After wash, MFI of PE was evaluated by FACS Caliber.

Another test has as its target T3, human 4-1BB-Fc protein (human, UniProt Q07011 24-186).
T3 construct: not shown: Fc part
Nature of the test: ELISA, coated human 4-1BB-Fc.

Test [3] has as its target human 4-1BB-biotin protein (human, UniProt Q07011 24-186, limits assumed). Briefly: Dual antigen capture ELISA: coated CLDN18.2 VLP, antibody titrated, then human 4-1BB-biotin at 1 ug/ml and streptavidin-HRP, OD450.

Substitutions are numbered along the chain they refer to.

T1 sequence (Q07011 24-186 limits assumed): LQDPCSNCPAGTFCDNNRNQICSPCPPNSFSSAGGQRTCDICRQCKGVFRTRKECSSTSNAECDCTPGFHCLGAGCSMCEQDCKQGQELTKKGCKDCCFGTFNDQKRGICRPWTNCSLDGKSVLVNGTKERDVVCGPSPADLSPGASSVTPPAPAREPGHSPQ
Sequence of human 4-1BB-biotin protein (Q07011 24-186 limits assumed): as above
T3 sequence (Q07011 24-186 limits assumed): as above
Description for human 4-1BB-Fc protein: To evaluate the antigen binding activity, the antibodies were subjected to ELISA test. Briefly, microtiter plates were coated with human 4-1BB-Fc protein at 0.1 μg/ml in PBS, 100 μl/well at 4° C. overnight, then blocked with 100 μl/well of 5% BSA. Five-fold dilutions of the antibodies starting from 10 μg/ml were added to each well and incubated for 1-2 hours at RT. The plates were washed with PBS/Tween and then incubate with goat-anti-human IgG antibody conjugated with Horse Radish Peroxidase (HRP) for 1 hour at RT. After washing, the plates were developed with TMB substrate and analyzed by spectrophotometer at OD 450-630 nm.

As for “urelumab (BMUR) anti-4-1BB monoclonal antibody”, the EC50 (read off the curve) (usually the concentration at which the effect is half-maximal) with human 4-1BB-His protein is 0.6 nM; in test [1], 0.06 nM.

B1: 1A10 anti-4-1BB monoclonal antibody (antibody, V domains shown)
VH: EVQLLESGGGLVQPGGSLRLSCAASGFTFSSYDMSWVRQAPGKGLEWVSWISYSGGSIYYADSVKGRFTISRDNSKNTLYLQMNSLRAEDTAVYYCARDAQRNSMREFDYWGQGTLVTVSS
VL: QSVLTQPPSASGTPGQRVTISCSGSSSNIGNNYVTWYQQLPGTAPKLLIYADSHRPSGVPDRFSGSKSGTSASLAISGLRSEDEADYYCATWDYSLSGYVFGGGTKLTVL
With B1, the “EC50 (read off the curve)” value was approximately 0.2 nM in test [2] and approximately 0.5 nM in the test with human 4-1BB-His protein.

B2: 41B01.02 anti-4-1BB antibody (antibody, V domains shown)
VH: B1 VH with N103Q
VL: B1 VL with Q16R
notes: Full human anti-4-1BB antibody
On to B2, for which the binding result with human 4-1BB-Fc protein is reported as “binds”.

B3: 72C1B6A3 anti-CLDN18.2 monoclonal antibody (antibody, V domains shown)
VH: QVQLVQSGAEVKKPGASVKVSCKASGYTFTTYPIEWVRQAPGQRLEWMGNFHPYNDDTKYNEKFKGRVTITRDTSASTAYMELSSLRSEDTAVYYCARRAYGYPYAMDYWGQGTLVTVSS
VL: DIVMTQSPDSLAVSLGERATINCKSSQSLLNAGNQKNYLTWYQQKPGQPPKLLIYRASSRESGVPDRFSGSGSGTDFTLTISSLQAEDVAVYYCQNDYIYPYTFGGGTKLEIK
notes: also called CLDN18.2 mAb 72C1B6A3
On to B3, for which the binding result in test [3] is “no binding (tested: 100 nM)”.
